The record followed here is article PMC3675161 (Biochemistry, 2013).

The series concerns the molecule itself. As to the kind of experiment: SEC.

B1: cytoplasmic portion of selenoprotein S with its native selenocysteine (cSelS) (domain or fragment, human, UniProt Q9BQE4 52-189, looked up)
chain: SARLRALRQRQLDRAAAAVEPDVVVKRQEALAAARLKMQEELNAQVEKHKEKLKQLEEEKRRQKIEMWDSMQEGKSYKGNAKKPQEEDSPGPSTSSVLKRKSDRKPLRGGGYNPLSGEGGGACSWRPGRRGPSSGGUG
modifications: selenocysteine at position 188
For the protein B1, the “stoichiometry N” value turned out to be 2.

As usually defined, the stoichiometry N is the number of molecules, sites or subunits per partner or assembly.
